14 molecules from patent US20230002486A1 (SPARX THERAPEUTICS, published 2023) can be followed below.

The target in experiment [1] is claudin 18.2 (CLDN 18.2), recombinant protein (human). Put plainly: competitive phage ELISA, phage-displayed Fab, coated and soluble CLDN 18.2. Details: unit not given here. As to the method:
(§1) After 15 min incubation and washing, anti-M13 antibody/HRP conjugate was added and incubated for 30 min, then developed with TMB for 5-10 min and quenched with 1 M phosphoric acid. Binding signal was analyzed by the plate reader.
(§2) To identify clones with improved solubility, CDR light chain residue 55 (LC55E or L2) was mutated back to Glu on clones 9O47, 5C9oap-oae, 9O24-oae, 9O36-oae, 9O45-oae, and 9O47-oae.
For orientation: In an ELISA, binding on a coated surface is turned into a signal by an enzyme label.

Experiment [2] has the same target. The experiment is described as follows: competitive phage ELISA: phage-displayed Fab pre-incubated with a dilution series of soluble CLDN 18.2 (axis: GFP-CLDN 18.2, nM), then added to plate-coated CLDN 18.2. As to the method:
as §1

Experiment [3] has the same target. The experiment is described as above. As to the method: as §1, §2
The source holds these as a separate data set.

For experiment [4] the target is unchanged. Put plainly: ELISA, coated CLDN18.2 (FIG. 30A).
Experiment [5] addresses T1, PD-L1 (programmed death-ligand 1), recombinant protein (human, UniProt Q9NZQ7 19-238, limits assumed).
T1 construct: the other ELISAs print only 'PD-L1'; also called human PDL1; CD274
Put plainly: ELISA, coated human PDL1 (FIG. 30B).

The target in experiment [6] is mouse PDL1 (mouse, UniProt Q9EP73 19-238, limits assumed). The experiment is described as follows: ELISA, coated mouse PDL1 (FIG. 30B).
mouse PDL1, sequence (Q9EP73 19-238 limits assumed): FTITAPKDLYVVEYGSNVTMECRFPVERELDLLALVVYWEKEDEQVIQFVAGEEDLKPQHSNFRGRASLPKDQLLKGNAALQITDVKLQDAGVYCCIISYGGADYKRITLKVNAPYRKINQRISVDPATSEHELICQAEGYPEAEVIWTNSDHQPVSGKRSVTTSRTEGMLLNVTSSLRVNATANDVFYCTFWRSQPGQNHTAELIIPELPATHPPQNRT
Experiment [7] concerns the target claudin 18.2 (CLDN 18.2), recombinant protein (human). Put plainly: direct ELISA on coated CLDN 18.2.
Experiment [8] has as its target T1, PD-L1 (programmed death-ligand 1), …. Put plainly: direct ELISA on coated human PD-L1.
The target is the same in experiment [9]. The experiment is described as follows: direct ELISA, coated PD-L1 (FIG. 28B).
Experiment [10] concerns the target claudin 18.2 (CLDN 18.2), recombinant protein (human). The experiment is described as follows: direct ELISA, coated CLDN 18.2 (FIG. 28A).

Like-named read-outs stand apart in the source and are kept apart here.

T1 sequence (Q9NZQ7 19-238 limits assumed): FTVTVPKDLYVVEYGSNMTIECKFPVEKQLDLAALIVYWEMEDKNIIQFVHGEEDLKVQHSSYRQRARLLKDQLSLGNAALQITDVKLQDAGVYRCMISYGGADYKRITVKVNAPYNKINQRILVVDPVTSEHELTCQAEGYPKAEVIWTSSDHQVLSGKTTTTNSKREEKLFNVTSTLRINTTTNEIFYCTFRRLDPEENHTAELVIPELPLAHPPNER
claudin 18.2 (CLDN 18.2), recombinant protein (human), sequence (chain, as listed by the source limits assumed): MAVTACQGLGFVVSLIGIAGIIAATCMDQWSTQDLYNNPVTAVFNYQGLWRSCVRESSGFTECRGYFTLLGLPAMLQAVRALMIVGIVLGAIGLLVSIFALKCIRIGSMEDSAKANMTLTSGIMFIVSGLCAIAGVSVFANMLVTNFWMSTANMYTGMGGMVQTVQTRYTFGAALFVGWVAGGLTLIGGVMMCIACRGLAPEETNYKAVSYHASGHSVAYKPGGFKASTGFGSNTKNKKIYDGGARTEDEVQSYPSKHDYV

B1: 9O36-oae with LC55E, phage-displayed Fab (Fab, V domains shown)
VH: EVQLVESGGGLVQPGGSLRLSCAVSGYTFSMNWVRQAPGKGLEWVAWINMYTGEPTYADDFKGRFTISRDDSKNTLYLQMNSLRAEDTAVYYCARLYRGNSLDYWGQGTLVTVSS
VL: DIQMTQSPSSLSASVGDRVTITCKSSQSLLNWGNQKSYLTWYQQKPGKAPKLLIYWASTLESGVPSRFSGSGSGTDYTLTISSLQPEDFATYYCQNAYFFPFTFGQGTKVEIK
notes: built from 9O36-oae with light chain residue 55 (Kabat; the sixth residue of VL CDR2 WASTLMS) mutated back to Glu; also called 9O36 oaeL2
On to B1, for which the binding affinity in [1] was 0.059.

B2: 9O47, phage-displayed Fab (Fab, V domains shown)
VH: EVQLVESGGGLVQPGGSLRLSCAVSGYTFSMNWVRQAPGKGLEWVAWINMYTGEPIYADDFKGRFTISRDDSKNTLYLQMNSLRAEDTAVYYCARLYNGNSLDYWGQGTLVTVSS
VL: DIQMTQSPSSLSASVGDRVTITCKSSQSLLNWGNQKSYLTWYQQKPGKAPKLLIYWASTLFSGVPSRFSGSGSGTDYTLTISSLQPEDFATYYCQNAYSFPFTFGQGTKVEIK
As for B2, the binding affinity in [1] came to 0.095. In experiment [2], the “IC50 (read off the curve)” value is roughly 0.1 nM and the Kd (in general, the equilibrium constant for the complex coming apart) turned out to be 0.095 nM.

B3: 5C9ob, phage-displayed Fab (Fab, V domains shown)
VH: EVQLVESGGGLVQPGGSLRLSCAVSGYTFSMNWVRQAPGKGLEWVAWINMYTGEPTYADDFKGRFTISRDDSKNTLYLQMNSLRAEDTAVYYCARLYNGNSLDYWGQGTLVTVSS
VL: DIQMTQSPSSLSASVGDRVTITCKSSQSLLNSGNQKSYLTWYQQKPGKAPKLLIYWASTLESGVPSRFSGSGSGTDYTLTISSLQPEDFATYYCQNAYFFPFTFGQGTKVEIK
notes: also called 5C9o with 5C9ob mutations
As for B3, the binding affinity in experiment [1] is 0.221.

B4: 9O24, phage-displayed Fab (Fab, V domains shown)
VH: EVQLVESGGGLVQPGGSLRLSCAVSGYTFSMNWVRQAPGKGLEWVAWINMYTGEKTYADDFKGRFTISRDDSKNTLYLQMNSLRAEDTAVYYCARLYNGNSLDYWGQGTLVTVSS
VL: DIQMTQSPSSLSASVGDRVTITCKSSQSLLNSGNWKSYLTWYQQKPGKAPKLLIYWASTLVSGVPSRFSGSGSGTDYTLTISSLQPEDFATYYCQNAYSFPFTFGQGTKVEIK
On to B4, for which the binding affinity in [1] amounted to 0.144. In [2], the “IC50 (read off the curve)” value was roughly 0.2 nM.

B5: 5C9oap-oaeE (5C9oap-oae with LC55E), phage-displayed Fab (Fab, V domains shown)
VH: EVQLVESGGGLVQPGGSLRLSCAVSGYTFSMNWVRQAPGKGLEWVAWINMYTGERTYADDFKGRFTISRDDSKNTLYLQMNSLRAEDTAVYYCARLYRGNSLDYWGQGTLVTVSS
VL: DIQMTQSPSSLSASVGDRVTITCKSSQSLLNWGNQKSYLTWYQQKPGKAPKLLIYWASTLESGVPSRFSGSGSGTDYTLTISSLQPEDFATYYCQNAYFFPFTFGQGTKVEIK
notes: also called 5C9oap oaeL2; 5C9oap with 5C9oae and L2 mutations
Take B5: the binding affinity in experiment [1] turned out to be 0.0593. For the same molecule, in experiment [3], the “IC50 (read off the curve)” value was roughly 0.06 nM.

B6: 9O41, phage-displayed Fab (Fab, V domains shown)
VH: EVQLVESGGGLVQPGGSLRLSCAVSGYTFSMNWVRQAPGKGLEWVAWINMYTGERTYADDFKGRFTISRDDSKNTLYLQMNSLRAEDTAVYYCARLYNGNSLDYWGQGTLVTVSS
VL: DIQMTQSPSSLSASVGDRVTITCKSSQSLLNSGNIKSYLTWYQQKPGKAPKLLIYWASTLRSGVPSRFSGSGSGTDYTLTISSLQPEDFATYYCQNAYSFPFTFGQGTKVEIK
As to B6, the binding affinity in [1] worked out at 0.167.

B7: 9O47-oaeE (9O47-oae with LC55E), phage-displayed Fab (Fab, V domains shown)
VH: EVQLVESGGGLVQPGGSLRLSCAVSGYTFSMNWVRQAPGKGLEWVAWINMYTGEPIYADDFKGRFTISRDDSKNTLYLQMNSLRAEDTAVYYCARLYRGNSLDYWGQGTLVTVSS
VL: DIQMTQSPSSLSASVGDRVTITCKSSQSLLNWGNQKSYLTWYQQKPGKAPKLLIYWASTLESGVPSRFSGSGSGTDYTLTISSLQPEDFATYYCQNAYFFPFTFGQGTKVEIK
notes: also called 9O47 oaeL2; 9O47 with 5C9oae and L2 mutations
As for B7, the binding affinity in [1] worked out at 0.0533. Also, in experiment [3], the “IC50 (read off the curve)” value was roughly 0.06 nM.

B8: 9O45-oae with LC55E, phage-displayed Fab (Fab, V domains shown)
VH: EVQLVESGGGLVQPGGSLRLSCAVSGYTFSMNWVRQAPGKGLEWVAWINMYTGETTYADDFKGRFTISRDDSKNTLYLQMNSLRAEDTAVYYCARLYRGNSLDYWGQGTLVTVSS
VL: DIQMTQSPSSLSASVGDRVTITCKSSQSLLNWGNQKSYLTWYQQKPGKAPKLLIYWASTLESGVPSRFSGSGSGTDYTLTISSLQPEDFATYYCQNAYFFPFTFGQGTKVEIK
notes: built from 9O45-oae with light chain residue 55 (Kabat; the sixth residue of VL CDR2 WASTLYS) mutated back to Glu; also called 9O45 oaeL2
In the case of B8, the binding affinity in experiment [1] amounted to 0.0562.

B9: 9O47E (9O47 with LC55E), phage-displayed Fab (Fab, V domains shown)
VH: EVQLVESGGGLVQPGGSLRLSCAVSGYTFSMNWVRQAPGKGLEWVAWINMYTGEPIYADDFKGRFTISRDDSKNTLYLQMNSLRAEDTAVYYCARLYNGNSLDYWGQGTLVTVSS
VL: DIQMTQSPSSLSASVGDRVTITCKSSQSLLNWGNQKSYLTWYQQKPGKAPKLLIYWASTLESGVPSRFSGSGSGTDYTLTISSLQPEDFATYYCQNAYSFPFTFGQGTKVEIK
notes: also called 9O47 LC55E (L2)
Consider B9, for which the binding affinity in [1] was 0.141.

B10: 9O45, phage-displayed Fab (Fab, V domains shown)
VH: EVQLVESGGGLVQPGGSLRLSCAVSGYTFSMNWVRQAPGKGLEWVAWINMYTGETTYADDFKGRFTISRDDSKNTLYLQMNSLRAEDTAVYYCARLYNGNSLDYWGQGTLVTVSS
VL: DIQMTQSPSSLSASVGDRVTITCKSSQSLLNWGNQKSYLTWYQQKPGKAPKLLIYWASTLYSGVPSRFSGSGSGTDYTLTISSLQPEDFATYYCQNAYSFPFTFGQGTKVEIK
With B10, the binding affinity in experiment [1] is 0.104. In addition, the “IC50 (read off the curve)” value in experiment [2] is roughly 0.1 nM.

B11: 9O24-oae with LC55E, phage-displayed Fab (Fab, V domains shown)
VH: EVQLVESGGGLVQPGGSLRLSCAVSGYTFSMNWVRQAPGKGLEWVAWINMYTGEKTYADDFKGRFTISRDDSKNTLYLQMNSLRAEDTAVYYCARLYRGNSLDYWGQGTLVTVSS
VL: DIQMTQSPSSLSASVGDRVTITCKSSQSLLNSGNWKSYLTWYQQKPGKAPKLLIYWASTLESGVPSRFSGSGSGTDYTLTISSLQPEDFATYYCQNAYFFPFTFGQGTKVEIK
notes: built from 9O24-oae with light chain residue 55 (Kabat; the sixth residue of VL CDR2 WASTLVS) mutated back to Glu; also called 9O24 oaeL2
Consider B11, for which the binding affinity in experiment [1] came out at 0.0604.

B12: 9O36, phage-displayed Fab (Fab, V domains shown)
VH: EVQLVESGGGLVQPGGSLRLSCAVSGYTFSMNWVRQAPGKGLEWVAWINMYTGEPTYADDFKGRFTISRDDSKNTLYLQMNSLRAEDTAVYYCARLYNGNSLDYWGQGTLVTVSS
VL: DIQMTQSPSSLSASVGDRVTITCKSSQSLLNWGNQKSYLTWYQQKPGKAPKLLIYWASTLMSGVPSRFSGSGSGTDYTLTISSLQPEDFATYYCQNAYSFPFTFGQGTKVEIK
With B12, the binding affinity in experiment [1] came to 0.108.

B13: OB12A4, two-chain anti-CLDN 18.2/anti-PD-L1 (12A4) bispecific antibody (bispecific antibody)
chain 1: not shown
chain 2: EIVLTQSPATLSLSPGERATLSCRASQSVSSYLAWYQQKPGQAPRLLIYDASNRATGIPARFSGSGSGTDFTLTISSLEPEDFAVYYCQQRSNWPTFGQGTKVEIKSGGGGEVQLVESGGGLVQPGGSLRLSCAVSGYTFSMNWVRQAPGKGLEWVAWINMYTGEPTYADDFKGRFTISRDDSKNTLYLQMNSLRAEDTAVYYCARLYNGNSLDYWGQGTLVTVSSGGGGSEPKSSDKTHTCPPCPAPELLGGPSVFLFPPKPKDTLMISRTPEVTCVVVDVSHEDPEVKFNWYVDGVEVHNAKTKPREEQYNSTYRVVSVLTVLHQDWLNGKEYKCKVSNKALPAPIEKTISKAKGQPREPQVCTLPPSREEMTKNQVSLSCAVKGFYPSDIAVEWESNGQPENNYKTTPPVLDSDGSFFLVSKLTVDKSRWQQGNVFSCSVMHEALHNRFTQKSLSLSPGK
For the molecule B13, the Kd is 0.212 nM in experiment [4], 0.412 nM in experiment [5] and roughly 11100 nM in [6]. Also, the EC50 (read off the curve) (in general, the concentration that produces a half-maximal response) in experiment [7] was roughly 0.2 nM; in [8] it was roughly 0.4 nM.

B14: Db11-21, heterodimeric (knob/hole) anti-CLDN 18.2/anti-PD-L1 bispecific antibody (bispecific antibody)
chain 1: not shown
chain 2: EIVLTQSPGTLSLSPGERATLSCRASQRVSSSYLAWYQQKPGQAPRLLIYDASSRATGIPDRFSGSGSGTDFTLTISRLEPEDFAVYYCQQYGSLPWTFGQGTKVEIKRSGGGGEVQLVESGGGLVQPGGSLRLSCAVSGYTFSMNWVRQAPGKGLEWVAWINMYTGEPTYADDFKGRFTISRDDSKNTLYLQMNSLRAEDTAVYYCARLYNGNSLDYWGQGTLVTVSSGGGGSEPKSSDKTHTCPPCPAPELLGGPSVFLFPPKPKDTLMISRTPEVTCVVVDVSHEDPEVKFNWYVDGVEVHNAKTKPREEQYNSTYRVVSVLTVLHQDWLNGKEYKCKVSNKALPAPIEKTISKAKGQPREPQVCTLPPSREEMTKNQVSLSCAVKGFYPSDIAVEWESNGQPENNYKTTPPVLDSDGSFFLVSKLTVDKSRWQQGNVFSCSVMHEALHNRFTQKSLSLSPGK
notes: Db11: 5C9ob VL-L1-durvalumab VH-L2-knob Fc; Db21: durvalumab VL-L3-5C9ob VH-L4-hole Fc; also called Db11/Db21
In the case of B14, the results for the Kd in experiment [9] and in experiment [10] were 0.378 nM and 0.104 nM, respectively.
